One block for each binder: values may come before it.
Target: Flag-HA-SBP-SMG6 (human, UniProt Q86US8 1-1419)
Assay: pull-down

Flag-HA-SBP-SMG6, sequence (Q86US8 whole entry): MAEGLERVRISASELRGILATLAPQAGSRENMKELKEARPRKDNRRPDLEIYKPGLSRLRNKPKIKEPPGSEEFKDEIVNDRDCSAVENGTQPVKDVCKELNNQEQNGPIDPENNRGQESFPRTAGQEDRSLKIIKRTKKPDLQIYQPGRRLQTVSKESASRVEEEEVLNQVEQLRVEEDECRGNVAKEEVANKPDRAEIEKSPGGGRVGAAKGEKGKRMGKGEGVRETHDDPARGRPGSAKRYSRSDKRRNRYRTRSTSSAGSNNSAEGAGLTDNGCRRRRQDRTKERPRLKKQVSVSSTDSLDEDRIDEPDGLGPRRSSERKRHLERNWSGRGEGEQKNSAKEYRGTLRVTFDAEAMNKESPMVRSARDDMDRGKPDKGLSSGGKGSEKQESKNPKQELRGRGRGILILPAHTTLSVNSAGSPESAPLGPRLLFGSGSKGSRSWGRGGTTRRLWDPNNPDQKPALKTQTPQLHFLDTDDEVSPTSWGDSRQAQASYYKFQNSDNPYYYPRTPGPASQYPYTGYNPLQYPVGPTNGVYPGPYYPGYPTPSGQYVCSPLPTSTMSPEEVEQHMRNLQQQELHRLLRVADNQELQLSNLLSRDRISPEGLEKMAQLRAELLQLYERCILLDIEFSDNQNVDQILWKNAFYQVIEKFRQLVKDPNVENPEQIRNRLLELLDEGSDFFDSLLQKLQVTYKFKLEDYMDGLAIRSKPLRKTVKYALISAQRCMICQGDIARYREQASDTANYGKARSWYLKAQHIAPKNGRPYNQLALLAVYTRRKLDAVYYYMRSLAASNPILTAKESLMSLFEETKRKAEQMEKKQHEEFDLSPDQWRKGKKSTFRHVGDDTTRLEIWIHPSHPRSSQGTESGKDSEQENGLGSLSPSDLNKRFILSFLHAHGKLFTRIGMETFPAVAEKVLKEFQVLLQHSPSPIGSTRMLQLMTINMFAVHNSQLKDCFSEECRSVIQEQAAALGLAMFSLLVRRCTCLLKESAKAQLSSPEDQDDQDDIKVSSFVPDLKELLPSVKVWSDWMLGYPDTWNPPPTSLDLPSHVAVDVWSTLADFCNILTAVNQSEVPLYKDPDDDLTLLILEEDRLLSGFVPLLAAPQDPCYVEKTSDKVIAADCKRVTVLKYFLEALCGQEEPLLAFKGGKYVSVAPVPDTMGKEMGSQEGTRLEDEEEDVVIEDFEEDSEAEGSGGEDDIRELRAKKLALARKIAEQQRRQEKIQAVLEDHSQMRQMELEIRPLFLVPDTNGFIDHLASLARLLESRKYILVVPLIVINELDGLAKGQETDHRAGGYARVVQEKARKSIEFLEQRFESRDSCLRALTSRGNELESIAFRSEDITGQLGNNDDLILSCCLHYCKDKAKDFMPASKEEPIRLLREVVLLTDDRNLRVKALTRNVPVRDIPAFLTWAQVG

binding result: binds
B1: SBP-UPF1 WT (natural protein)
chain: MSVEAYGPSSQTLTFLDTEEAELLGADTQGSEFEFTDFTLPSQTQTPPGGPGGPGGGGAGGPGGAGAGAAAGQLDAQVGPEGILQNGAVDDSVAKTSQLLAELNFEEDEEDTYYTKDLPIHACSYCGIHDPACVVYCNTSKKWFCNGRGNTSGSHIVNHLVRAKCKEVTLHKDGPLGETVLECYNCGCRNVFLLGFIPAKADSVVVLLCRQPCASQSSLKDINWDSSQWQPLIQDRCFLSWLVKIPSEQEQLRARQITAQQINKLEELWKENPSATLEDLEKPGVDEEPQHVLLRYEDAYQYQNIFGPLVKLEADYDKKLKESQTQDNITVRWDLGLNKKRIAYFTLPKTDSDMRLMQGDEICLRYKGDLAPLWKGIGHVIKVPDNYGDEIAIELRSSVGAPVEVTHNFQVDFVWKSTSFDRMQSALKTFAVDETSVSGYIYHKLLGHEVEDVIIKCQLPKRFTAQGLPDLNHSQVYAVKTVLQRPLSLIQGPPGTGKTVTSATIVYHLARQGNGPVLVCAPSNIAVDQLTEKIHQTGLKVVRLCAKSREAIDSPVSFLALHNQIRNMDSMPELQKLQQLKDETGELSSADEKRYRALKRTAERELLMNADVICCTCVGAGDPRLAKMQFRSILIDESTQATEPECMVPVVLGAKQLILVGDHCQLGPVVMCKKAAKAGLSQSLFERLVVLGIRPIRLQVQYRMHPALSAFPSNIFYEGSLQNGVTAADRVKKGFDFQWPQPDKPMFFYVTQGQEEIASSGTSYLNRTEAANVEKITTKLLKAGAKPDQIGIITPYEGQRSYLVQYMQFSGSLHTKLYQEVEIASVDAFQGREKDFIILSCVRANEHQGIGFLNDPRRLNVALTRARYGVIIVGNPKALSKQPLWNHLLNYYKEQKVLVEGPLNNLRESLMQFSKPRKLVNTINPGARFMTTAMYDAREAIIPGSVYDRSSQGRPSSMYFQTHDQIGMISAGPSHVAAMNIPIPFNLVMPPMPPPGYFGQANGPAAGRGTPKGKTGRGGRQKNRFGLPGPSQTNLPNSQASQDVASQPFSQGALTQGYISMSQPSQMSQPGLSQPELSQDSYLGDEFKSQIDVALSQDSTYQGERAYQHGGVTGLSQY

binding result: binds
B2: SBP-UPF1 ΔStalkΔSQ1 (domain or fragment)
chain: MSVEAYGPSSQTLTFLDTEEAELLGADTQGSEFEFTDFTLPSQTQTPPGGPGGPGGGGAGGPGGAGAGAAAGQLDAQVGPEGILQNGAVDDSVAKTSQLLAELNFEEDEEDTYYTKDLPIHACSYCGIHDPACVVYCNTSKKWFCNGRGNTSGSHIVNHLVRAKCKEVTLHKDGPLGETVLECYNCGCRNVFLLGFIPAKADSVVVLLCRQPCASQSSLKDINWDSSQWQPLIQDRCFLSWLVKIPSEQEQLRARQITAQQINKLEELWKETSVSGYIYHKLLGHEVEDVIIKCQLPKRFTAQGLPDLNHSQVYAVKTVLQRPLSLIQGPPGTGKTVTSATIVYHLARQGNGPVLVCAPSNIAVDQLTEKIHQTGLKVVRLCAKSREAIDSPVSFLALHNQIRNMDSMPELQKLQQLKDETGELSSADEKRYRALKRTAERELLMNADVICCTCVGAGDPRLAKMQFRSILIDESTQATEPECMVPVVLGAKQLILVGDHCQLGPVVMCKKAAKAGLSQSLFERLVVLGIRPIRLQVQYRMHPALSAFPSNIFYEGSLQNGVTAADRVKKGFDFQWPQPDKPMFFYVTQGQEEIASSGTSYLNRTEAANVEKITTKLLKAGAKPDQIGIITPYEGQRSYLVQYMQFSGSLHTKLYQEVEIASVDAFQGREKDFIILSCVRANEHQGIGFLNDPRRLNVALTRARYGVIIVGNPKALSKQPLWNHLLNYYKEQKVLVEGPLNNLRESLMQFSKPRKLVNTINPGARFMTTAMYDAREAIIPGSVYDRSSQGRPSSMYFQTHDQIGMISAGPSHVAAMNIPIPFNLVMPPMPPPGYFGQANGPAAGRGTPKGKTGRGG

binding result: binds
B3: SBP-UPF1 Δ1C (natural protein)
chain: MSVEAYGPSSQTLTFLDTEEAELLGADTQGSEFEFTDFTLPSQTQTPPGGPGGPGGGGAGGPGGAGAGAAAGQLDAQVGPEGILQNGAVDDSVAKTSQLLAELNFEEDEEDTYYTKDLPIHACSYCGIHDPACVVYCNTSKKWFCNGRGNTSGSHIVNHLVRAKCKEVTLHKDGPLGETVLECYNCGCRNVFLLGFIPAKADSVVVLLCRQPCASQSSLKDINWDSSQWQPLIQDRCFLSWLVKIPSEQEQLRARQITAQQINKLEELWKENPSATLEDLEKPGVDEEPQHVLLRYEDAYQYQNIFGPLVKLEADYDKKLKESQTQDNITVRWDLGLNKKRIAYFTLPKTDSDMRLMQGDEICLRYKGDLAPLWKGIGHVIKVPDNYGDEIAIELRSSVGAPVEVTHNFQVDFVWKSTSFDRMQSALKTFAVDETSVSGYIYHKLLGHEVEDVIIKCQLPKRFTAQGLPDLNHSQVYAVKTVLQRPLSLIQGPPGTGKTVTSATIVYHLARQGNGPVLVCAPSNIAVDQLTEKIHQTGLKVVRLCAKSREAIDSPVSFLANADVICCTCVGAGDPRLAKMQFRSILIDESTQATEPECMVPVVLGAKQLILVGDHCQLGPVVMCKKAAKAGLSQSLFERLVVLGIRPIRLQVQYRMHPALSAFPSNIFYEGSLQNGVTAADRVKKGFDFQWPQPDKPMFFYVTQGQEEIASSGTSYLNRTEAANVEKITTKLLKAGAKPDQIGIITPYEGQRSYLVQYMQFSGSLHTKLYQEVEIASVDAFQGREKDFIILSCVRANEHQGIGFLNDPRRLNVALTRARYGVIIVGNPKALSKQPLWNHLLNYYKEQKVLVEGPLNNLRESLMQFSKPRKLVNTINPGARFMTTAMYDAREAIIPGSVYDRSSQGRPSSMYFQTHDQIGMISAGPSHVAAMNIPIPFNLVMPPMPPPGYFGQANGPAAGRGTPKGKTGRGGRQKNRFGLPGPSQTNLPNSQASQDVASQPFSQGALTQGYISMSQPSQMSQPGLSQPELSQDSYLGDEFKSQIDVALSQDSTYQGERAYQHGGVTGLSQY
